Patent US7211395 (dated 2007)
Bridges are numbered along the chain shown (N, C = ends). [ ]: non-standard residue; d: D form. Ahx = NCCCCCC(=O)O

B1: DX-1169 (peptide)
chain: Ac-GDPRSCVEKYYWDVLICGFFDPGGGK-NH2
modifications: disulfide 6-17 (inferred); also: fluorescein label, position not given here
B2: DX-1085 (peptide)
chain: Ac-GDRWFCDSAYWQEIPACARDDPGGGK-NH2
modifications: disulfide 6-17 (inferred); also: fluorescein label, position not given here
B3: DX-1087 (peptide)
chain: Ac-GDSDFCDTPYWRDLWQCNSPDPGGGK-NH2
modifications: disulfide 6-17 (inferred); also: fluorescein label, position not given here
B4: DX-236 truncation SEQ 42 (peptide)
chain: Ac-AEGTGDFWFCDRIAWYPQHLCGGGK-NH2
modifications: disulfide 10-21 (inferred)
B5: DX-236 truncation SEQ 39 (peptide)
chain: Ac-FWFCDRIAWYPQHLCEFLDPEGGGK-NH2
modifications: disulfide 4-15 (inferred)
B6: DX-319 (peptide)
chain: Ac-AEGTGDDWQCVKDWANRRRGCMADDPE[Ahx]K(fluorescein)-NH2
modifications: disulfide 10-21 (inferred)
B7: DX-297 (peptide)
chain: Ac-AEGTGSWKVCDHFFCLSPAPE[Ahx]K(fluorescein)-NH2
modifications: disulfide 10-15 (inferred)
B8: DX-313 (peptide)
chain: Ac-AEGTGDDWDCVTRWANRDQQCWGPDPE[Ahx]K(fluorescein)-NH2
modifications: disulfide 10-21 (inferred)
B9: DX-1002 (peptide)
chain: Ac-GDLRDCQTTWPFTMMQCPNNDPGGGK-NH2
modifications: disulfide 6-17 (inferred); also: fluorescein label, position not given here
B10: DX-1171 (peptide)
chain: Ac-GSRSFCMDWPNHRDCDYSAPGGGK-NH2
modifications: disulfide 6-15 (inferred); also: fluorescein label, position not given here
B11: DX-1091 (peptide)
chain: Ac-GDLRSCFTYYPFTTFSCSPADPGGGK-NH2
modifications: disulfide 6-17 (inferred); also: fluorescein label, position not given here
B12: DX-997 (peptide)
chain: Ac-GDFSLCWIVDEDGTKWCLPDPGGGK-NH2
modifications: disulfide 6-17 (inferred); also: fluorescein label, attachment site not given here
B13: DX-1179 (peptide)
chain: Ac-AGYQFCTWDPIFCGWHGTGGGK-NH2
modifications: disulfide 6-13 (inferred); also: fluorescein label, position not given here
B14: DX-321 (GD...GGGK form) (peptide)
chain: Ac-GDRNMCKFSWIRSPAFCARADPGGGK-NH2
modifications: disulfide 6-17 (inferred); also: fluorescein label, attachment site not given here
B15: DX-1167 (peptide)
chain: Ac-GDSPYCKIALFQHFEVCAADDPGGGK-NH2
modifications: disulfide 6-17 (inferred); also: fluorescein label, position not given here
B16: DX-1173 (peptide)
chain: Ac-AGKWYCAWDPLVCEIFGTGGGK-NH2
modifications: disulfide 6-13 (inferred); also: fluorescein label, position not given here
B17: DX-1177 (peptide)
chain: Ac-AGLEYCFYQWWGCPHAGTGGGK-NH2
modifications: disulfide 6-13 (inferred); also: fluorescein label, position not given here
B18: DX-1163 (peptide)
chain: Ac-GDDSMCITWPFKRPWPCANDPGGGK-NH2
modifications: disulfide 6-17 (inferred); also: fluorescein label, position not given here
B19: DX-1089 (peptide)
chain: Ac-GDSFCVTYIGTWETVCKRSDPGGGK-NH2
modifications: disulfide 5-16 (inferred); also: fluorescein label, position not given here
B20: DX-1165 (peptide)
chain: Ac-GDNDGCTDTNWSWMFDCPPLDPGGGK-NH2
modifications: disulfide 6-17 (inferred); also: fluorescein label, position not given here
B21: DX-1175 (peptide)
chain: Ac-AGWTTCHIYDWFCSSSGTGGGK-NH2
modifications: disulfide 6-13 (inferred); also: fluorescein label, position not given here
B22: DX-1093 (peptide)
chain: Ac-GSLWDCWLYDCEGNAPGGGK-NH2
modifications: disulfide 6-11 (inferred); also: fluorescein label, position not given here
B23: DX-298 (peptide)
chain: Ac-AEGTGSNHGCWHFSCIWDAPE[Ahx]K(fluorescein)-NH2
modifications: disulfide 10-15 (inferred)
B24: DX-295 (peptide)
chain: Ac-AEGTGSFKICDQWFCLMPAPE[Ahx]K(fluorescein)-NH2
modifications: disulfide 10-15 (inferred)
B25: DX-315 (peptide)
chain: Ac-AEGTGDDWDCVTRWANRDQQCWALDPE[Ahx]K(fluorescein)-NH2
modifications: disulfide 10-21 (inferred)
B26: DX-317 (peptide)
chain: Ac-AEGTGDDWDCVTDWANRHQHCWALDPE[Ahx]K(fluorescein)-NH2
modifications: disulfide 10-21 (inferred)
B27: DX-296 (peptide)
chain: Ac-AEGTGSHVGCNNALCMQYAPE[Ahx]K(fluorescein)-NH2
modifications: disulfide 10-15 (inferred)
B28: DX-232 (peptide)
chain: Ac-AEGTGSVAWCTIFLCLDVAPEGGGK(fluorescein)-NH2
modifications: disulfide 10-15 (inferred)

These binders were tested against T1, human serum albumin (HSA) (human, UniProt P02768) (assay: FP, PBS).
B1: no binding. B2: no binding. B3: no binding.

What follows are binders tested against T1, human serum albumin (HSA) (assay: FP).
A Kd of 8.9 µM was found for B4 in this work. A Kd of 8.9 µM was found for B5 in this work.

These binders were tested against T1, human serum albumin (HSA) (assay: FP, pH 7.4, 0.14 M NaCl).
A Kd of over 200 µM was found for B6 in this work. A Kd of over 200 µM was found for B7 in this work. A Kd of over 200 µM was found for B8 in this work.

Biological target: T1, human serum albumin (HSA)
Experiment: FP, PBS
Remark: another data set of the same source
A Kd of 4 µM was found for B9 in this work. A Kd of 165 µM was found for B10 in this work. A Kd of over 10 µM was found for B11 in this work. A Kd of over 10 µM was found for B12 in this work. A Kd of 185 µM was found for B13 in this work. A Kd of over 10 µM was found for B14 in this work. A Kd of over 10 µM was found for B15 in this work. A Kd of over 10 µM was found for B16 in this work. A Kd of 153 µM was found for B17 in this work. A Kd of 42 µM was found for B18 in this work. A Kd of over 10 µM was found for B19 in this work. A Kd of over 10 µM was found for B20 in this work. A Kd of 30 µM was found for B21 in this work. A Kd of over 10 µM was found for B22 in this work.

What follows are binders tested against T1, human serum albumin (HSA) (assay: FP, pH 9.1, 0.14 M NaCl).
A Kd of over 200 µM was found for B23 in this work. A Kd of 90 µM was found for B8 in this work.

What follows are binders tested against T1, human serum albumin (HSA) (assay: FP, pH 6.2, 0.14 M NaCl).
A Kd of over 200 µM was found for B23 in this work. A Kd of over 200 µM was found for B6 in this work. A Kd of over 100 µM was found for B24 in this work. A Kd of over 200 µM was found for B25 in this work. A Kd of over 200 µM was found for B26 in this work. A Kd of over 100 µM was found for B27 in this work. A Kd of over 200 µM was found for B7 in this work. A Kd of 0.5 µM was found for B28 in this work. A Kd of 80 µM was found for B8 in this work.

What follows are binders tested against T1, human serum albumin (HSA) (assay: FP, pH 7.4, 0.14 M NaCl, 0.1% caprylate).
A Kd of over 100 µM was found for B25 in this work. A Kd of over 200 µM was found for B27 in this work. A Kd of over 200 µM was found for B7 in this work.
